The values below come from patent publication US20210102195A1 (TWIST BIOSCIENCE, published 2021).

Experiment [1] has as its target T1, CRTH2R (UniProt Q9Y5Y4 1-395, limits assumed).
T1 construct: whole, on cells; also called Prostaglandin D2 receptor 2 (DP2 or CRTH2) receptor
T1 sequence (looked up): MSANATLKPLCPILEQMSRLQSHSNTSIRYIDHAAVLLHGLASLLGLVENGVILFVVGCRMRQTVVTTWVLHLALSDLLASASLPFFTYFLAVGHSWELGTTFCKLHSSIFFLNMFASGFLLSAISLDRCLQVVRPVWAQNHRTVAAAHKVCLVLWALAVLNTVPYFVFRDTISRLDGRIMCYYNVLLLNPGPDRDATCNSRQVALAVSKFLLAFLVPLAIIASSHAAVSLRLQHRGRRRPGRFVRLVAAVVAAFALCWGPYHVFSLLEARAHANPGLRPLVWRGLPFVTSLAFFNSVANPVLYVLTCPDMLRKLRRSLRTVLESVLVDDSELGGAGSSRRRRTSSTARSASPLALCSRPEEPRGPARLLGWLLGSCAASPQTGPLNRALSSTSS
The experiment can be described thus: flow cytometry (MFI), CHO CRTH2R-positive cells against parental CHO cells, 3-fold titration from 100 nM; grey = CRTH2R cells, black = parental cells (no legend on the panel). The method, then:
Cell binding of anti-CRTH2R antibodies was determined by testing on CHO CRTH2R-positive cells (GFP+) and parental CHO cells (GFP−), comparing parental negative and target positive cells to rule out false-positives. Antibodies as listed in Table 14A were titrated starting at 100 nM (15 ug/mL) with 3-fold titrations, for a total of 8 points. Two antibodies (gPCR-51 and gPCR-52) were used as a positive control.

Experiment [2] addresses T1, CRTH2R. As to the kind of experiment: cell-based or functional assay.
The target in another experiment is T2, human TIGIT (human, UniProt Q495A1 22-141, limits assumed).
T2 construct: also called hTIGIT
T2 sequence (looked up): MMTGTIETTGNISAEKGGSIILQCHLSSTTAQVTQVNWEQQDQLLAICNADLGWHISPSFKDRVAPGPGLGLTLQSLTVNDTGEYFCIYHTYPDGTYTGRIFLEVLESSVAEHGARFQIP
As to the kind of experiment: monovalent affinity of the hTIGIT IgGs; method not named in Example 14.

B1: CRTH2 39 (antibody, V domains shown)
VH: QVQLVQSGAEVKKPGSSVKVSCKASVDTFSRYSISWVRQAPGQGLEWMGGIIPVFDTTNYAQKFQGRVTITADESTSTAYMELSSLRSEDTAVYYCARDMYYDFGVILGGTAVGTNNGSANEVVPADDAFDIWGQGTLVTVSS
VL: QSVLTQPPSVSAAPGQKVTISCSGSSSNIGDNDVSWYQQLPGTAPKLLIYDDDKRPSGIPDRFSGSKSGTSATLGITGLQTGDEADYYCASWDTSLSGGYVFGGGTKLTVL
For orientation: EC50 means the midpoint of the concentration-response curve. For B1, the EC50 with CRTH2R [1] stood at 19 nM.

B2: CRTH2-74 (antibody)
VH: QVQLVESGGGVVQPGRSLRLSCAASGFSFSEYGIHWVRQAPGKGLEWVAVISYEGSNEYYADSVKGRFTISRDNSKNTLYLQMNSLRAEDTAVYYCARANQHFGPVAGGATPSEEPGSQLTRAELGWDAPPGQESLADELLQLGTEHGYHYYGMDVWGQGTLVTVSS
VL: QSVLTQPPSVSAAPGQKVTISCSGSTSNIGKNYVSWYQQLPGTAPKLLIYDDDERPSGIPDRFSGSMSGTSATLGITGLQTGDEADYYCEAWDADLSGAVFGGGTKLTVL
notes: CRTH2R IgG
On to B2, for which the “antagonist activity in PGD2-induced cAMP assay at 33 nM IgG” value (from here on “antagonist activity”) in the experiment with CRTH2R [2] was more than 20%. Also, the EC50 with CRTH2R [1] was determined as 8.61 nM.

B3: CRTH2-28 (antibody, V domains shown)
VH: QVQLVQSGAEVKKPGSSVNVSCKASGGTFSDYAFSWVRQAPGQGLEWMGAIIPFFGTVNYAQKFQGRVTITADESTSTAYMELSSLRSEDTAVYYCARDMYYDFATGTGGPEDDLYPQGELNDGYRIEVVPADDAFDIWGQGTLVTVSS
VL: QSVLTQPPSVSAAPGQKVTISCSGSISNIGKNYVSWYQQLPGTAPKLLIYDDHKRPSGIPDRFSGSKSGTSATLGITGLQTGDEADYYCATWDRGLSAAVFGGGTKLTVL
For the molecule B3, the “antagonist activity” value in the experiment with CRTH2R [2] was more than 20%.

B4: CRTH2-45 (antibody)
VH: QVQLVESGGGVVQPGRSLRLSCAASGFTFSHYAMHWVRQAPGKGLEWVADISHEGSNKYYADSVKGRFTISRDNSKNTLYLQMNSLRAEDTAVYYCARDGRGSLPRPKGGPTSGGGFSTNIGYGFVVQSYDSSEDSGGAFDIWGQGTLVTVSS
VL: QSVLTQPPSVSAAPGQKVTISCSGTSSNIENNYVSWYQQLPGTAPKLLIYDNVKRPSGIPDRFSGSKSGTSATLGITGLQTGDEADYYCGTWDNTVSAPWVFGGGTKLTVL
notes: CRTH2R IgG
As for B4, the “antagonist activity” value with CRTH2R [2] was more than 20%. Also, the EC50 with CRTH2R [1] is 23.2 nM.

B5: CRTH2-19 (antibody, V domains shown)
VH: QVQLVQSGAEVKKPGSSVKVSCKASGGTFSSHAINWVRQAPGQGLEWMGRIIPIVGTTTYAQKFQGRVTITADESTSTAYMELSSLRSEDTAVYYCARDMYYDFDYFGLTLTGDRNDDEVVPADDAFDIWGQGTLVTVSS
VL: QSALTQPASVSGSPGQSITISCTGTSSDVGGYDYVTWYQQHPGKAPKLMIYDVDTRPSGVSNRFSGSKSGNTASLTISGLQAEDEADYYCSSYTTSTSYVFGGGTKLTVL
notes: CRTH2R IgG
On to B5, for which the “antagonist activity” value with CRTH2R [2] is more than 20%. Also, in the experiment with CRTH2R [1], the EC50 stood at 16.7 nM.

B6: CRTH2-70 (antibody, V domains shown)
VH: QVQLVQSGAEVKKPGSSVKVSCKASGGTFSNHAIIWVRQAPGQGLEWMGGIIPIFGTPSYAQKFQGRVTITADESTSTAYMELSSLRSEDTAVYYCARDMYYDFDVISAGVVGAGNPEVVPADDAFDIWGQGTLVTVSS
VL: QSVLTQPPSVSAAPGQKVTISCSGSTSNIGNNFVSWYQQLPGTAPKLLIYDNEKRPSGIPDRFSGSKSGTSATLGITGLQTGDEADYYCGTWDERQTDESYVFGGGTKLTVL
For the molecule B6, the “antagonist activity” value with CRTH2R [2] was more than 20%.

B7: CRTH2 66 (antibody)
heavy chain (variable domain given): QVQLVESGGGVVQPGRSLRLSCAASGFDFSGYGMHWVRQAPGKGLEWVAVISYEGSNKFYADSVKGRFTISRDNSKNTLYLQMNSLRAEDTAVYYCARDLRELECEEWTIEVHGQEFAVHQDRGGVFSRGPCVDPRGVAGSFDVWGQGTLVTVSS
light chain (variable domain given): EIVMTQSPATLSVSPGERATLSCRASQGVGSNLAWYQQKPGQAPRLLIYRTSIRATGIPARFSGSGSGTEFTLTISSLQSEDFAVYYCQQYYSWPPLTFGGGTKVEIK
Consider B7, for which, in the experiment with CRTH2R [1], the EC50 is 3.95 nM.

B8: CRTH2-24 (antibody, V domains shown)
VH: QVQLVQSGAEVKKPGSSVKVSCKASGGSFSNYGISWVRQAPGQGLEWMGGIIPLIGTANYAQKFQGRVTITADESTSTAYMELSSLRSEDTAVYYCARDMYYDFTLGPQSIGPLGEVVPADDAFDIWGQGTLVTVSS
VL: QSVLTQPPSVSAAPGQKVTISCSGSSSNIGNNFVSWYQQLPGTAPKLLIYDNIQRPSGIPDRFSGSKSGTSATLGITGLQTGDEADYYCGTWDTSLSAVVFGGGTKLTVLR
With B8, in the experiment with CRTH2R [2], the “antagonist activity” value is more than 20%.

B9: CRTH2-15 (antibody, V domains shown)
VH: QVQLVQSGAEVKKPGSSVKVSCKASGGTFSTYAIDWVRQAPGQGLEWMGGIIPLFGSPNYAQKFQGRVTITADESTSTAYMELSSLRSEDTAVYYCARANQHFFLYEGTSSSWLHVGHARYGYHYYGMDVWGQGTLVTVSS
VL: QSVLTQPPSVSAAPGQKVTISCSGSGSNIGSNYVSWYQQLPGTAPKLLIYDNIRRPSGIPDRFSGSKSGTSATLGITGLQTGDEADYYCAAWDTRLSAGVFGGGTKLTVL
notes: CRTH2R IgG
For the molecule B9, in the experiment with CRTH2R [2], the “antagonist activity” value was more than 20%. For the same molecule, in the experiment with CRTH2R [1], the EC50 is 73.8 nM.

B10: CRTH2 57 (antibody, V domains shown)
VH: QVQLVQSGAEVKKPGSSVKVSCKASGGTFSSYAMSWVRQAPGQGLEWMGGIIPLFGTTDYAQKFQGRVTITADESTSTAYMELSSLRSEDTAVYYCARANQHFVKIQGAPVSTPVPGFGTTGYHYYGMDVWGQGTLVTVSS
VL: QSVLTQPPSVSAAPGQKVTISCSGSSSNIEDNYVSWYQQLPGTAPKLLIYDNFKRPSGIPDRFSGSKSGTSATLGITGLQTGDEADYYCGTWDTSLSAALFGGGTKLTVL
Regarding B10, the EC50 in the experiment with CRTH2R [1] turned out to be 158 nM.

B11: CRTH2-60 (antibody, V domains shown)
VH: QVQLVQSGAEVKKPGSSVKVSCKASGGTFKNYAINWVRQAPGQGLEWMGAIIPKFGAANYAQKFQGRVTITADESTSTAYMELSSLRSEDTAVYYCARANQHFSAVRGLAFGYGYRIGGYHYYGMDVWGQGTLVTVSS
VL: QSVLTQPPSVSAAPGQKVTISCSGSTSNIGINYVSWYQQLPGTAPKLLIYENRKRPSGIPDRFSGSKSGTSATLGITGLQTGDEADYYCATWDASLKNLVFGGGTKLTVL
As to B11, the “antagonist activity” value in the experiment with CRTH2R [2] is more than 20%.

B12: CRTH2-8 (antibody, V domains shown)
VH: QVQLVQSGAEVKKPGSSVKVSCKASGGTFTDYAISWVRQAPGQGLEWMGGIIPFFGSPNYAQKFQGRVTITADESTSTAYMELSSLRSEDTAVYYCARDMYYDFAAGLEGTITEVFDEEGHQGGTEVVPADDAFDIWGQGTLVTVSS
VL: QSVLTQPPSVSAAPGQKVTISCSGSSSNIGKNYVSWYQQLPGTAPKLLIYDNNQRPSGIPDRFSGSKSGTSATLGITGLQTGDEADYYCGTWDTSLTSVVFGGGTKLTVL
notes: CRTH2R IgG
On to B12, for which, in the experiment with CRTH2R [2], the “antagonist activity” value is more than 20%. In the experiment with CRTH2R [1], the EC50 is 135 nM.

B13: CRTH2-42 (antibody)
VH: QVQLVESGGGVVQPGRSLRLSCAASGFAFSSYAMHWVRQAPGKGLEWVAVISYEGSNEYYADSVKGRFTISRDNSKNTLYLQMNSLRAEDTAVYYCARDLRELECEEWTVLQYGKFHMRWAESGEGSLSRGPCVDPRGVAGSFDVWGQGTLVTVSS
VL: QSALTQPASVSGSPGQSITISCTGTSSDVGGYRYVSWYQQHPGKAPKLMIYNVNYRPSGVSNRFSGSKSGNTASLTISGLQAEDEADYYCSSYRSSSTLGVFGGGTKLTVL
Take B13: in the experiment with CRTH2R [2], the “IC50 fold difference of the PGD2 dose response (cAMP) with 100 nM IgG” value is more than 2 fold and the “antagonist activity” value is more than 20%.

B14: CRTH2 35 (antibody, V domains shown)
VH: QVQLVQSGAEVKKPGSSVKVSCKASGGTFRSYAISWVRQAPGQGLEWMGGIIPISGTTNYAQKFQGRVTITADESTSTAYMELSSLRSEDTAVYYCARANQHFTRIFGNYQIYFGHFGYHYYGMDVWGQGTLVTVSS
VL: QSALTQPASVSGSPGQSITISCTGTSSDIGGYEFVSWYQQHPGKAPKLMIYGVSRRPSGVSNRFSGSKSGNTASLTISGLQAEDEADYYCGSYTSSSTPYVFGGGTKLTVL
On to B14, for which the EC50 with CRTH2R [1] was determined as 12.6 nM.

B15: TIGIT-55-01 (antibody, V domains shown)
VH: EVQLLESGGGLVQPGGSLRLSCAASGFTFGSYGMSWVRQAPGKGLEWVSSISGSGSTTYYADSVKGRFTISRDNSKNTLYLQMNSLRAEDTAVYYCARVAGSSGWAFDYWGQGTLVTVSS
VL: DIQMTQSPSSLSASVGDRVTITCRASQAISNYLNWYQQKPGKAPKLLIYAASRLQSGVPSRFSGSGSGTDFTLTISSLQPEDFATYYCQESYSTPFTFGGGTKVEIK
notes: hTIGIT IgG
The Kd is the equilibrium constant for the complex coming apart. A high value points to weaker binding. B15 showed an equilibrium dissociation constant (Kd) with human TIGIT of 15.9 nM.

B16: TIGIT-55-02 (antibody, V domains shown)
VH: EVQLLESGGGLVQPGGSLRLSCAASGLTFSNYAMTWVRQAPGKGLEWVSGISRSGGSTYYADSVKGRFTISRDNSKNTLYLQMNSLRAEDTAVYYCATLRLYSSGGGIDYWGQGTLVTVSS
VL: DIQMTQSPSSLSASVGDRVTITCRASQYISTYLNWYQQKPGKAPKLLIYAASSLQGGVPSRFSGSGSGTDFTLTISSLQPEDFATYYCQQNYITPLTFGGGTKVEIK
notes: hTIGIT IgG
In the case of B16, the Kd with human TIGIT amounted to 141 nM.
